# Reference: patent publication US20040018971A1 (published 2004)
# B1: Her2/neu.669 (AA 9) (peptide)
# peptide: VVFGILIKR
# notes: synthetic peptide; the 9-mer and the 10-mer carry the same source label Her2/neu.669
# B2: Her2/neu.217 (peptide)
# peptide: RTVCAGGCAR
# notes: synthetic peptide
# B3: Her2/neu.642.F1 (peptide)
# peptide: FPAEQRASPL
# notes: 10-mer analog of the HER2/neu peptide starting at position 642
# B4: Her2/neu.649.F1I9 (peptide)
# peptide: FPLTSIISI
# notes: 9-mer analog of the HER2/neu peptide starting at position 649
# B5: Her2/neu.760.F1, 9-mer (peptide)
# peptide: FPKANKEIL
# notes: 9-mer analog of the HER2/neu peptide starting at position 760; same label as the 8-mer in r52
# B6: Her2/neu.649.F1, 10-mer (peptide)
# peptide: FPLTSIISAV
# notes: 10-mer analog of the HER2/neu peptide starting at position 649; same label as the 9-mer in r40
# B7: Her2/neu.649.F1I10 (peptide)
# peptide: FPLTSIISAI
# notes: 10-mer analog of the HER2/neu peptide starting at position 649
# B8: Her2/neu.706.F1, 9-mer (peptide)
# peptide: FPNQAQMRI
# notes: 9-mer analog of the HER2/neu peptide starting at position 706; same label as the 10-mer in r51
# B9: Her2/neu.649.F1I11 (peptide)
# peptide: FPLTSIISAVI
# notes: 11-mer analog of the HER2/neu peptide starting at position 649
# B10: HER2/neu peptide, position 162, 11 amino acids (peptide)
# peptide: CYQDTILWKDI
# notes: also called Her2/neu.162 (11-mer)
# B11: HER2/neu peptide, position 342, 9 amino acids (peptide)
# peptide: CYGLGMEHL
# notes: also called Her2/neu.342 (9-mer)
# B12: HER2/neu peptide, position 162, 8 amino acids (peptide)
# peptide: CYQDTILW
# notes: also called Her2/neu.162 (8-mer)
# B13: HER2/neu peptide, position 826, 11 amino acids (peptide)
# peptide: CMQIAKGMSYL
# notes: also called Her2/neu.826 (11-mer)
# B14: HER2/neu peptide, position 863, 10 amino acids (peptide)
# peptide: DFGLARLLDI
# notes: also called Her2/neu.863 (10-mer)
# B15: HER2/neu peptide, position 363, 8 amino acids (peptide)
# peptide: EFAGCKKI
# notes: also called Her2/neu.363 (8-mer)
# B16: HER2/neu peptide, position 363, 9 amino acids (peptide)
# peptide: EFAGCKKIF
# notes: also called Her2/neu.363 (9-mer)
# B17: HER2/neu peptide, position 863, 8 amino acids (peptide)
# peptide: DFGLARLL
# notes: also called Her2/neu.863 (8-mer)
# B18: HER2/neu peptide, position 596, 10 amino acids (peptide)
# peptide: CVARCPSGVK
# B19: HER2/neu peptide, position 180, 9 amino acids (peptide)
# peptide: ALTLIDTNR
# B20: HER2/neu peptide, position 805, 10 amino acids (peptide)
# peptide: CLLDHVRENR
# B21: HER2/neu peptide, position 962, 9 amino acids (peptide)
# peptide: DSECRPRFR
# B22: HER2/neu peptide, position 607, 9 amino acids (peptide)
# peptide: DLSYMPIWK
# B23: HER2/neu peptide, position 220, 9 amino acids (peptide)
# peptide: CAGGCARCK
# B24: HER2/neu peptide, position 295, 9 amino acids (peptide)
# peptide: CVTACPYNY
# B25: HER2/neu peptide, position 997, 9 amino acids (peptide)
# peptide: ASPLDSTFY
# B26: HER2/neu peptide, position 890, 9 amino acids (peptide)
# peptide: ALESILRRR
# B27: HER2/neu peptide, position 240, 9 amino acids (peptide)
# peptide: CAAGCTGPK
# B28: HER2/neu peptide, position 528, 9 amino acids (peptide)
# peptide: CVNCSQFLR
# notes: also called Her2/neu.528
# B29: HER2/neu peptide, position 1144, 10 amino acids (peptide)
# peptide: DVRPQPPSPR
# B30: HER2/neu peptide, position 845, 10 amino acids (peptide)
# peptide: DLAARNVLVK
# B31: HER2/neu peptide, position 334, 10 amino acids (peptide)
# peptide: CSKPCARVCY
# B32: HER2/neu peptide, position 1212, 10 amino acids (peptide)
# peptide: AFSPAFDNLY
# B33: HER2/neu peptide, position 293, 9 amino acids (peptide)
# peptide: ASCVTACPY
# notes: also called Her2/neu.293
# B34: HER2/neu peptide, position 26, 9 amino acids (peptide)
# peptide: CTGTDMKLR
# B35: HER2/neu peptide, position 705, 9 amino acids (peptide)
# peptide: AMPNQAQMR
# notes: T0001 prints N there
# B36: HER2/neu peptide, position 195, 9 amino acids (peptide)
# peptide: CSPMCKGSR
# B37: HER2/neu A11 motif peptide, position 90, 9 amino acids (peptide)
# peptide: QVRQVPLQR
# notes: also called HER2/neu 90-98
# B38: HER2/neu A11 motif peptide, position 95, 9 amino acids (peptide)
# peptide: PLQRLRIVR
# B39: HER2/neu A11 motif peptide, position 1162, 10 amino acids (peptide)
# peptide: PAGATLERPK
# notes: also called HER2/neu 1162-1171
# B40: HER2/neu A11 motif peptide, position 360, 9 amino acids (peptide)
# peptide: NIQEFAGCK
# B41: HER2/neu A11 motif peptide, position 360, 10 amino acids (peptide)
# peptide: NIQEFAGCKK
# notes: also called HER2/neu 360-369
# B42: HER2/neu A11 motif peptide, position 601, 10 amino acids (peptide)
# peptide: PSGVKPDLSY
# notes: also called HER2/neu 601-610
# B43: HER2/neu A11 motif peptide, position 1130, 10 amino acids (peptide)
# peptide: PLTCSPQPEY
# B44: HER2/neu A11 motif peptide, position 24, 9 amino acids (peptide)
# peptide: QVCTGTDMK
# notes: also called HER2/neu 24-32
# B45: HER2/neu A11 motif peptide, position 181, 10 amino acids (peptide)
# peptide: LTLIDTNRSR
# notes: also called HER2/neu 181-190
# B46: HER2/neu A11 motif peptide, position 1014, 10 amino acids (peptide)
# peptide: MGDLVDAEEY
# notes: also called HER2/neu 1014-1023
# B47: HER2/neu A11 motif peptide, position 491, 9 amino acids (peptide)
# peptide: QALLHTANR
# notes: also called HER2/neu 491-499
# B48: HER2/neu A11 motif peptide, position 745, 10 amino acids (peptide)
# peptide: NVKIPVAIKV
# notes: Built as this row prints it (length 10); also called HER2/neu 745-754
# B49: HER2/neu A11 motif peptide, position 1102, 10 amino acids (peptide)
# peptide: PTHDPSPLQR
# notes: also called HER2/neu 1102-1111
# B50: HER2/neu A11 motif peptide, position 996, 10 amino acids (peptide)
# peptide: PASPLDSTFY
# notes: also called HER2/neu 996-1005
# B51: HER2/neu A11 motif peptide, position 1119, 9 amino acids (peptide)
# peptide: PLPSETDGY
# notes: also called HER2/neu 1119-1127
# B52: HER2/neu A11 motif peptide, position 889, 10 amino acids (peptide)
# peptide: MALESILRRR
# notes: also called HER2/neu 889-898
# B53: HER2/neu A11 motif peptide, position 841, 9 amino acids (peptide)
# peptide: LVHRDLAAR
# notes: also called HER2/neu 841-849
# B54: HER2/neu A11 motif peptide, position 960, 9 amino acids (peptide)
# peptide: MIDSECRPR
# B55: HER2/neu A11 motif peptide, position 795, 9 amino acids (peptide)
# peptide: QLVTQLMPY
# notes: also called HER2/neu 795-803
# Target: HLA-A*0301 (human)
# Test: inhibition of 125I probe peptide binding to purified HLA
row,Binder,IC50
1,B1,100 nM
2,B2,1620 nM

# Target: HLA-A*3101 (human)
# Test: as above
row,Binder,IC50
1,B1,13 nM
2,B2,40 nM

# Target: HLA-A*6801 (human)
# Test: as above
row,Binder,IC50
1,B1,4 nM
2,B2,320 nM

# Target: HLA-B*0702 (human)
# Test: competition vs 125I-labeled standard peptide, purified HLA
row,Binder,IC50
1,B3,1.4 nM
2,B4,212 nM
3,B5,6.7 nM
4,B6,220 nM
5,B7,229 nM
6,B8,68 nM

# Target: HLA-B*3501 (human)
# Test: as above
row,Binder,IC50
1,B3,248 nM
2,B4,118 nM
3,B9,96 nM
4,B5,4500 nM
5,B6,300 nM
6,B7,327 nM
7,B8,108 nM

# Target: HLA-B*5101 (human)
# Test: as above
row,Binder,IC50
1,B3,859 nM
2,B9,4.6 nM
3,B5,190 nM
4,B6,63 nM
5,B7,26 nM

# Target: HLA-B*5301 (human)
# Test: as above
row,Binder,IC50
1,B3,8460 nM
2,B4,28 nM
3,B9,66 nM
4,B6,2910 nM
5,B7,194 nM
6,B8,18 nM

# Target: HLA-B*5401 (human)
# Test: as above
row,Binder,IC50
1,B3,286 nM
2,B4,1.5 nM
3,B9,2.2 nM
4,B5,77 nM
5,B6,1.2 nM
6,B7,3.3 nM
7,B8,4.5 nM

# Target: T1, HLA-A*2401 (human)
# T1 construct: Purified HLA class I molecule (kind: MHC class I); also called A*2402
# Test: inhibition of 125I-labelled standard peptide binding to purified HLA, gel filtration
row,Binder,relative binding ratio
1,B10,0.0016 ratio (IC50 of standard peptide / IC50 of test peptide)
2,B11,0.018 ratio (IC50 of standard peptide / IC50 of test peptide)
3,B12,0.012 ratio (IC50 of standard peptide / IC50 of test peptide)
4,B13,-0.0003 ratio (IC50 of standard peptide / IC50 of test peptide)
5,B14,0.0002 ratio (IC50 of standard peptide / IC50 of test peptide)
6,B15,-0.0003 ratio (IC50 of standard peptide / IC50 of test peptide)
7,B16,0.0003 ratio (IC50 of standard peptide / IC50 of test peptide)
8,B17,0.0005 ratio (IC50 of standard peptide / IC50 of test peptide)

# Target: HLA-A*1101 (human)
# Test: competitive inhibition of 125I-labeled probe peptide binding to purified HLA-A*1101, gel filtration
row,Binder,relative binding ratio
1,B18,0.0042 ratio (IC50 of standard peptide / IC50 of test peptide)
2,B19,0.0005 ratio (IC50 of standard peptide / IC50 of test peptide)
3,B20,0.0001 ratio (IC50 of standard peptide / IC50 of test peptide)
4,B21,-0.0002 ratio (IC50 of standard peptide / IC50 of test peptide)
5,B22,0.01 ratio (IC50 of standard peptide / IC50 of test peptide)
6,B23,-0.0002 ratio (IC50 of standard peptide / IC50 of test peptide)
7,B24,0.0004 ratio (IC50 of standard peptide / IC50 of test peptide)
8,B25,0.0004 ratio (IC50 of standard peptide / IC50 of test peptide)
9,B26,0.0006 ratio (IC50 of standard peptide / IC50 of test peptide)
10,B27,0.0021 ratio (IC50 of standard peptide / IC50 of test peptide)
11,B28,0.031 ratio (IC50 of standard peptide / IC50 of test peptide)
12,B29,0.0001 ratio (IC50 of standard peptide / IC50 of test peptide)
13,B30,0.0007 ratio (IC50 of standard peptide / IC50 of test peptide)
14,B31,0.0002 ratio (IC50 of standard peptide / IC50 of test peptide)
15,B32,0.0003 ratio (IC50 of standard peptide / IC50 of test peptide)
16,B33,0.0074 ratio (IC50 of standard peptide / IC50 of test peptide)
17,B34,0.0005 ratio (IC50 of standard peptide / IC50 of test peptide)
18,B35,0.0006 ratio (IC50 of standard peptide / IC50 of test peptide)
19,B36,-0.0001 ratio (IC50 of standard peptide / IC50 of test peptide)

# Target: HLA-A*1101 (human)
# Test: inhibition of 125I-labelled probe peptide binding to purified HLA-A*1101, gel filtration; relative to standard peptide 940.06
row,Binder,relative binding ratio
1,B37,0.0005 ratio (IC50 of standard peptide / IC50 of test peptide)
2,B38,0.0001 ratio (IC50 of standard peptide / IC50 of test peptide)
3,B39,-0.0002 ratio (IC50 of standard peptide / IC50 of test peptide)
4,B40,0.0036 ratio (IC50 of standard peptide / IC50 of test peptide)
5,B41,0.0056 ratio (IC50 of standard peptide / IC50 of test peptide)
6,B42,0.0003 ratio (IC50 of standard peptide / IC50 of test peptide)
7,B43,0.0002 ratio (IC50 of standard peptide / IC50 of test peptide)
8,B44,0.052 ratio (IC50 of standard peptide / IC50 of test peptide)
9,B45,0.0005 ratio (IC50 of standard peptide / IC50 of test peptide)
10,B46,0.0002 ratio (IC50 of standard peptide / IC50 of test peptide)
11,B47,0.001 ratio (IC50 of standard peptide / IC50 of test peptide)
12,B48,0.0007 ratio (IC50 of standard peptide / IC50 of test peptide)
13,B49,0.0001 ratio (IC50 of standard peptide / IC50 of test peptide)
14,B50,0.0001 ratio (IC50 of standard peptide / IC50 of test peptide)
15,B51,0.0002 ratio (IC50 of standard peptide / IC50 of test peptide)
16,B52,0.0003 ratio (IC50 of standard peptide / IC50 of test peptide)
17,B53,0.0014 ratio (IC50 of standard peptide / IC50 of test peptide)
18,B54,0.0006 ratio (IC50 of standard peptide / IC50 of test peptide)
19,B55,0.0039 ratio (IC50 of standard peptide / IC50 of test peptide)
